The text below walks through data of patent publication US20240218057A1 (ROCKEFELLER UNIVERSITY, published 2024).

The target of the assay is T1, SARS-COV-2 RBD (SARS-COV-2, UniProt P0DTC2 319-539).
T1 construct: also called WT RBD
Description: ELISA, RBD coated on plate. A general note: ELISA stands for enzyme-linked immunosorbent assay.

B1: C918 (antibody, V domains shown)
VH: QVQLVESGGGLVKPGGSLRLSCTASGFTFSDYYMTWLRQAPGKGLEWVSYISSTSPYTSYADSVKGRFTISRDNARNSVYLQMNSLRAEDTAIYYCARVPPPQRLHPFDVWGQGTMVTVSS
VL: DIQMTQSPSTLSASVGDRVTITCRASQSISSWLAWYQQKPGKAPKLLIYQASSLESGVPSRFSGSGSGTDFTLTISSLQPDDFATYYCQQYFRYSWTFGQGTKVEI
As usually defined, the EC50 is the midpoint of the concentration-response curve. For the molecule B1, the midpoint of the response, the EC50, lay at 1.78 ng/mL.

B2: C910 (antibody, V domains shown)
VH: QVQLVQSGAAVKKPGASVKVSCKASGYTFTSYDINWVRQAPGQGLEWMGWMNPNSGNTGFAQRFQGRATLSRDTSITTAYMELTTLRSEDTAVYYCARGRANYNSKFLLDNWGQGTLVTVSS
VL: QSALTQPASVSGSPGQSITISCTGTSSDVGSYNLVSWYQQHPGTAPKLMIYEGSKRPSGVSDRFSGYKSGNTASLTISGLQADDEADYYCCSFAGSTTRYVFGTGTRVTVL
On to B2, for which the EC50 was 2.47 ng/mL.

B3: C928 (antibody, V domains shown)
VH: QVQLVESGGGVVQPGRSLRLSCAASGFTFSFFDMHWVRQAPGKGLEWVADISYDGSNQYYGDSVKGRFTISRDNSKSTLYLQMNSLRAEDTAVYYCAKPVDTAMFDSWGQGTLVTVSS
VL: SYELTQPPSVSVAPGETARITCGGNNIGHKSVHWYQQQPGQAPVLVIYYDSERPSGIPERFSGSNSGNTATLTISRVEAGDEADYHCQVWDGGNDHLVIFGGGTKLTVL
For B3, the EC50 was 4.14 ng/mL.

B4: C920 (antibody, V domains shown)
VH: QLQLQESGPGLVKPSETLSLTCAVSGGSISNSPFYWGWIRQPPGKGLECIGSIYYSGSTYYNPSLKSRVTISVDTSKKQFSLKLSSVTAADTAVYYCARHFADGSGRVVDSWGQGILVTVSS
VL: EIVLTQSPATLSLSPGERATLSCRASQSVSSYLAWYQQKPGQAPSLLIYDVSNRATGIPARFSGSGSGTDFTLTISSLEPEDFAVYYCQQRINWPLYTFGQGTKLEIK
B4 registered an EC50 of 2.35 ng/mL.

B5: C921 (antibody, V domains shown)
VH: QLQLQESGPGLVKPSETLSLTCAVSGGSISNSPFYWAWIRQPPGKGLECIGSIYYTGSTYYNPSLKSRVTISVDTSTKQFSLKLRSVTAADTAVYYCARHFADGSGRVVDYWGQGTLVTVSS
VL: EIVLTQSPATLSLSPGERATLSCRASQSVTTYLAWYQQKPGQAPRLLIYDVSSRATGIPARFSGSGSGTDFTLTISSLEPEDFAVYYCQQRSNWPLYTFGQGTKLEIK
With B5, the EC50 came out at 3.91 ng/mL.

B6: C916 (antibody, V domains shown)
VH: EVQLVESGGGLVQPGGSLRLSCAASGFTFSNYDMHWVRQATGRGLEWVSTIGTAGDTYYPGSVKGRFTISRENAKNSLYLQMNSLRAGDTALYYCARVRYDSSGYFWSLDYWGQGTLVTVSS
VL: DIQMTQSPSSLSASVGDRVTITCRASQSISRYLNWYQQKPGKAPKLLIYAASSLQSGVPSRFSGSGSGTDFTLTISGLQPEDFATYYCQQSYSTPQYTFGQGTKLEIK
B6 registered a concentration for a half-maximal effect (EC50) of 1.97 ng/mL.

B7: C917 (antibody, V domains shown)
VH: EVQLVESGGGLVQPGGSLRLSCAASGFTFSNYDMHWVRQATGKGLDWVSTIGTAGDTYYPGSVKGRFTISRENAKNSLYLQMNSLRAGDTAVYYCARVRFDTSGYFWSLDYWGQGTLVTVSS
VL: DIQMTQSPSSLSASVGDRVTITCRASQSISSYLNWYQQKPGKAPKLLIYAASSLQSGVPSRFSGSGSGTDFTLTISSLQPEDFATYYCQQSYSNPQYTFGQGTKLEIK
B7 displayed an EC50 of 1.05 ng/mL.

B8: C914 (antibody, V domains shown)
VH: QVQLQESGPGLVKPSQTLSLTCTVSGGSITSGDYYWTWIRQPPGKGLEWIGYIYYSGNTYYNLSLRSRITISEDTSKNQFSLKLRSVTAADTAVYYCARAMITFGGVIVVLDYWGQGTLVTVSS
VL: QSALTQPPSASGSPGQSVTISCTGTSTDVGGYNFVSWYQQHPGKAPKLMIYEVSKRPSGVPDRFSGSKSGNTASLTVSGLQAEDEADYYCSSYAGSNILYVFGTGTKVTVL
B8 showed a concentration giving a half-maximal response (EC50) of 1.59 ng/mL.

B9: C915 (antibody, V domains shown)
VH: QVQLQESGPGLVKPSQTLSLTCTVSGGSISSGDYYWSWIRQPPGKGLEWIGYIYYSDSTYYNPSLRTRVTISVDTSKNQFSLKLTSVTAADTAVYYCARAMITFGGVIVLYDYWGQGTLVTVSS
VL: QSALTQPPSASGSPGQSVTISCTGTSSDVGGYNYVSWYQQHPGKAPKLMIYEVTKRPSGVPARFSGSKSGNTASLTVSGLQAEDEADYYCSSYAGSILLYVFGTGTKVTVL
Consider B9, for which the midpoint of the response, the EC50, lay at 3.49 ng/mL. This EC50 is about 2.2-fold higher than that of the molecule before.

B10: C911 (antibody, V domains shown)
VH: QVQLVESGGGVVQPGGSLRLSCAASAFTFSSYAMHWIRQSPGKGLEWVAVISSDGSSKFYADSVKGRFTISRDNSKNTLYLQMNSLSAEDTAVYYCARDLENVLIEVALQDWGQGTLVTVSS
VL: DIQMTQSPSSLSASVGDRVTITCRASQSINSYLNWYQQKPGKAPKLLIYAASSLHSGVPSRFSGSGSGTDFTLTISSLQPEDFATYYCQQSYTTLALTFGGGTKVEIK
B10 registered an EC50 of 2.36 ng/mL.

B11: C905 (antibody, V domains shown)
VH: QVQLQESGPGLVTPSQTLSLTCSVSGGSIHSRDFYWGWIRQHPGKGLEWIGHIYYTGNTYYNPSLKSRVTISADTSKNQFSLKLSSVTAADTAVYYCARATVVITLHWFDPWGQGTLVTVSS
VL: NFMLTQPHSVSESPGKTVTISCTGSGGSIASNYVQWYQQRPGSAPTTVIYEDNERPSGVPDRFSGSIDSSSNSASLTISGVKTEDEADYFCQSYDVGNPVIFGGGTKLTVL
For the molecule B11, the response was half-maximal at 3.06 ng/mL (EC50). The EC50 values of the last two molecules are within 1.5-fold of each other.

B12: C929 (antibody, V domains shown)
VH: EVQLVESGGGLIQPGGSLRLSCAASGFTVSSNYMTWVRQAPGKGLEWVSVIYSGGTTYYADSVKGRFTISRDNSKNTLYLQMNSLRAEDTAVYYCARDLVVWGMDVWGQGTTVTVSS
VL: DIQLTQSPSFLSASVGDRVTITCRASQGISSYLAWYQQKPGKAPKLLIYAASTLQSGVPSRFSGSGSGTEFTLTISSLQPEDFATYYCQLLNSYPYTFGQGTKLEIK
B12 gave an EC50 of 2.07 ng/mL. The EC50 values of the last two molecules are within 1.5-fold of each other.

B13: C930 (antibody, V domains shown)
VH: EVQLVESGGGLFQPGGSLRLACAASGITVSSNYMSWVRQPPGKGLEWVSVIYAGGSTFYADSVKGRLTISRDNSKNTLYLQINSLRAEDTAVYYCARDLVVWGMDVWGQGTTVTVSS
VL: DIQLTQSPSFLSASVGDRVTITCRASQGISSYLAWYQQKPGKAPKLLIYAASTLQSGVPSRFSGSGSGTEFTLTISSLQPEDFATYYCQQLNTYPYTFGQGTKLEIK
Consider B13, for which the EC50 is 1.24 ng/mL.

B14: C927 (antibody, V domains shown)
VH: QVQLVESGGGVVQPGRSLRLSCVASGFTFSYFDMHWVRQAPGKGLEWVALISHDGSTTFYGDSARGRFTISRDNSRNTLDLQMNSLRPEDTAVYFCAKPVDAAMFDFWGQGTLVTVS
VL: SYELTQPPSVSVAPGKTARITCGGNNIGSKSVHWYQQRPGQAPVLVIYYDSDRPSGIPERFSGSNSGNTATLTISRVEAGDEADFYCQVWDRSTNHLVVFGGGTQLTVL
B14 showed an EC50 of 3.77 ng/mL. This EC50 is about 3-fold higher than that of the molecule before.

B15: C908 (antibody, V domains shown)
VH: EVQLVQSGAEVKKPGESLKISCKASGYSFTIYWIGWVRQMPGKGLEWMGIIYPGESETRYSPSFQGQVTISADKSISTAYLQWRSLKASDTAMYYCARGGPPGGVKLELTDYWGQGTLVTVSS
VL: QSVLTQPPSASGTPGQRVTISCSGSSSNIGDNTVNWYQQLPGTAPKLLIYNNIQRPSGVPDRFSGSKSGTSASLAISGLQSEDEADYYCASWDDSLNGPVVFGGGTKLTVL
Molecule B15 registered an EC50 of 1.27 ng/mL.

B16: C924 (antibody, V domains shown)
VH: QVQLVESGGGVVQPGRSLRLSCAASGFTFSSYGMHWVRQAPGKGLEWVAVISDDGSNKYYADSVKGRFTISRDNSKNTLYLQMNSLRAEDTAVYYCAKSWWLSENWFDPWGQGTLVTVSS
VL: EIVMTQSPATLSVSPGERATLSCRASQSVSSNLAWYQQKPGQAPRLLIYGASTRATGIPARFSGTGSGTEFTLTISSLQSEDFAVYYCQQYNNWPLTFGGGTKVEIK
As for B16, the EC50 came to 2.5 ng/mL.

B17: C925 (antibody, V domains shown)
VH: QVQLVESGGGVVQPGRSLRLSCAASGFTFSNYGLHWVRQAPGKGLEWVAVTSDDGNRKYYADSVKGRFTISRDDSKNTLYLQMNNLRTEDTAVYYCAKSWWLSENWFDPWGQGTLVTVSS
VL: EIVMTQSPATLSVSPGERATLSCRASQSVRSNLAWYQQRPGQAPRLLIYGAFTRATGIPARFSVSGSGTEFTLTIDSLQSEDFAVYYCQQYNNWPLTFGGGTKVEIK
B17 yielded an EC50 of 2.26 ng/mL.

B18: C906 (antibody, V domains shown)
VH: EVQLVESGGGLIKPGRSLRLSCTASGFTFGDYAMTWFRQAPGKGLEWVGFIRSKAYGGTTGYAASVKYRFTISRDDSKSIVYLQMDSLKTEDTAVYYCTRWDGWSQHDYWGQGTLVTVSS
VL: DIVMTQSPLSLSVTPGEPASISCRSSQSLLHSNGINYFDWYLQKPGQSPQLLIYLGSNRASGVPDRFSGSGSGTDFTLKISRVEAEDVGVYYCMQVLQIPYTFGQGTKLEI
The molecule B18 gave an EC50 of 1.07 ng/mL.

B19: C907 (antibody, V domains shown)
VH: QVQLQESGPGLVKPSETLSLTCTVSGGSITSYYWTWIRQSPGKGLEWIGYIYYIGSTNYNPSLKSRLTISLATSKNQFSLRLNSVTAADTAVYYCASYYNDTSGYSYGLDVWGQGTTVTVSS
VL: DIQMTQSPSSLSAFVGDRVTITCRAGQSISSYLHWYQQKPGKAPKLLIYATSTLQSGVPSRFSGRGSGTDFTLTISGLQPEDFATYYCQQSYSTPQTFGQGTKVEIK
Turning to B19, the response was half-maximal at 3.71 ng/mL (EC50).

B20: C922 (antibody, V domains shown)
VH: QVQLVESGGGLVKPGGSLRLSCAGSGFTFTDYYMAWIRQAPGKGLEWVSYISTSDRFINYADSVKGRFTISRDDAKNSLYLQMNSLRAEDTAVYYCARDGGGYDRFDHWGQGTLVTVSS
VL: DIQMTQSPSSLSASVGDRVTITCQASQDISNLLNWYQQKAGKAPKLLIYDASNLETGVPSRFSGSGSGTDFTFTISSLQPEDIATYYCLQYDNLPLTFGQGTKLEIK
In the case of B20, the EC50 was determined as 2.42 ng/mL. This EC50 lies about 1.5-fold lower than the previous one.

B21: C923 (antibody, V domains shown)
VH: QVQLVESGGGLVKPGGSLRLSCAASGFTFSDYHMTWIRQAPGKGLEWVSYISNRSTYRNYADSVKGRFTISRDNAKNSLYLQMNSLRAEDTAVYYCARDGGAYDRFDYWGQGTLVTVSS
VL: DIQMTQSPSSLSASVGDRVTITCQASQDIKKFLNWYQQKPGKAPKLLIYDASNLETGVPSRFSGSGSGTDLTFTISSLQPEDIATYYCQQYDNLPLTFGQGTKLEIK
The molecule B21 yielded a half-maximal effective concentration (EC50) of 1.95 ng/mL.

B22: C912 (antibody, V domains shown)
VH: QVQLVESGGGVVQPGRSLRLSCAASGFSFSTYTMHWVRQTPDKGLEWVAVISDDGKNKYYADSMKGRFTISRDNSKNTLYLQMSSLRPEDTAVYYCARDLENVMIEVALESWGQGTLVTVSS
VL: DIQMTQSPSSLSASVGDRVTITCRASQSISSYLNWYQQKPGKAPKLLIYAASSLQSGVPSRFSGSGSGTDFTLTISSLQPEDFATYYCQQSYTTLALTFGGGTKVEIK
In turn, B22 gave an EC50 of 2.45 ng/mL.

B23: C909 (antibody, V domains shown)
VH: QVQLVQSGAEVKKPGASVKVSCRASGYTFPNYDLNWVRQATGQGLEWMGWMNPNSGNTGYAQKFQGRITMTRITSISTAYMELSSLRSEDTAVYYCARGRANWNSNFLLDSWGQGTLVTVSS
VL: QSALTQPASVSGSPGQSITISCTGTSSDVGGYNLVSWYQQYPGNVPKLMIYEDAKRPSGVSNRFSGSKSANTASLTISGLQAEDEADYYCCSYAGSSTRYVFGTGTKVTVL
B23 showed a half-maximal effective concentration (EC50) of 3.24 ng/mL. The EC50 values of the last two molecules are within 1.5-fold of each other.
